This note sets out measurements from the domain aggregation screens of Martell et al. (2025).

The data set is described as follows: soluble fraction after stress (log2 fold change); higher = more stays soluble; pooled small domains, quantitative proteomics. The settings on record: stress: 50 degC. The essentials: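 The stress applied to every library was 50°C. These custom libraries of small protein domains were pooled and measured at high throughput with quantitative proteomics as the read-out. Aggregation propensity is expressed as the base-two logarithm of the fold change in how much of each protein remains soluble. The higher the value, the more of that protein stays in solution.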

With “HMKDTFHNLSEEKRERIIRAALGEFAASGYEKATLDGVVQAAGISKGGLYEYISSKEDLFRYLLEYSYD”, the “soluble fraction (log2)” value was -1.53. Regarding “HMTTPAAISKIKKLEEAKRLLATTTYSMKEIAVKLKYKSHTHFGMDFKNNTGMTPAEYRKAIKAKREKQMN”, the “soluble fraction (log2)” value was -0.0571.

In the case of “HMQTMTAGERREAILRELEQAQGPVSASALAKRFHVSRQAVVGDVAMLRALNSPIAATPRGYVLTR”, the “soluble fraction (log2)” value is -0.0845. Next, “HMGLVLIDSYNDIGSAKLITNKIRNLGLIFEENENKINVFAGPFEKNDINLKIDFLIRNGYTNAQLY”: -2.48; “HMVAELAEMAENKNITSAQLALAWILKQSENIIPIPGTKRIKYLNENIEAVNVDLSKEDVENIENLLRKYP”: -0.0297.

“HMGAGLDDLVRKSLHNAGLKADDNVVSWISGNLGSDRMVSRMELEKLVLFVAGQSEITLEDAQAVIGD”: the “soluble fraction (log2)” value was -0.305.

With “HMTGMEAAEFGKRIMKLRKQKGMTQSKLAEQINVSNKAISRWETGEGFPEITLLKPLAKALGTTVDELFGE”, the “soluble fraction (log2)” value is -0.204. Next, “HMNPYQDSILLWKSFDTPLTNEDFMGLSKEELRIARNEIYAAYGRIFTSQDLIDYFNSKPWYQGTTPA”: -0.202; “HMGMESFWNRVANLLNTSTVVELAQILDVKRSTLSSWIHSDRRPPMEVLLKITRLTGVDIHRLE”: -1.56; “HMKESRFDYDAVLLYSDKDSITEVKDAVQHLTKEFGSVFTTKKIPEKATFGKLFRIEKGEVNIIEDN”: -0.0248. Next, “HMFSIDRNIRRLRKEAGLTQEELAQKLFVTRQTISLWELGKVHPDLETLQKLAEQFQVDLLQVLYGPE”: -2.17; “HMEYDEVVVVKQIIPKGKNTMVAHLKHLKEHGETGFLKQAVGYLKLHASEIPFSVDAVISEVH”: -0.361; “HMPNTLAGIERYLGSGMVKGIGPVYASRLVSAFGTAVFDVIEQTPERLREIDGIGEKRTRKITSGWADQ”: -0.127. Next, “HMTNQEFNEVFKLLLAAYPNTKDKESVATIYFLTIANELTKKEFAEAVVKILKTRKSGFIPQPAEILEVAK”: -0.67. Turning to “HMDSPVLTAEIKALIDKELEQNAVKLATGLKKQRKRATDIHDALIRQGHEVSYRTVVRYIRNKTAQTS”, the “soluble fraction (log2)” value was -0.061. In the case of “HMLEIRGFTVLLSDRGIVGIIEEIIQNPGQDLLRILSPEKREILVPLHSDLITGINKKKKTITMNLPDGL” it was -0.465. Next, “HMSPDLNEVEEKVFRALNGVESMHVNKLGIELNLPVSELFFTLLELEMKNVVKALPGGMYKL”: -1.95. Next, “HMSDGDFLQKIAEEILAQFPDKVKEYQKGKKGLIGFFMGELMKRSKGKADPKVATRILEEILSEKNGSS”: 0.17; “HMDYIITHYPDNKRFETQVDGVVAFVQYRLSGDKLDIIHTIVPPAIGGRGIAAALVKYAYDYAIENGMK”: -0.76. As to “HMRFEWFDTLTDREKEIFGLIATGFDNQQIADRLQLAEQTVRNNISTIYSKLEVKDRFEIIRLANTI”, the “soluble fraction (log2)” value was -0.706. With “HMSHGNAALTPRQRLRLARLVVDDQWSVSAAAEFFRVSYPTAAKWARRYVELGPAGMADRSS”, the “soluble fraction (log2)” value was -1.42.

For “HMPYNNLADAPASWKKLDDTPLTLGQVNWIAKIYDALVAKGMEKGAAAGTAISRFKKSFKVADGKWVQV”, the “soluble fraction (log2)” value is -0.0698. Next, “HMEVLTEPKVQSIDTHGEKSTFVIESPNPLQPDEIAKLVGADGISVRVDRTWLKSHRDSTWTYSILTVS”: -0.00748; “HMGPSEVTLDNFVGKNYTDVVNDTSYQFTFKKEEKSDQTHAAGIIIAQSPKKGIKVKSNSTVTLTVSTG”: -0.0626.

With “HMYMLYQQLADSLRDKIYEGTYTFGDKIPSERTLAATFGISHLTVRKALAILEEEGLLDRRQGNGTFVRV”, the “soluble fraction (log2)” value was -1.02. As to “HMKHMTMYEAAKIAKEVGAPKLWLTHYSPSMTRPEEFMDDVRKIFPAAYAAKDGWTMELNFDEG”, the “soluble fraction (log2)” value was -0.493. As to “HMNSRAERKEAAKEAIRNLLREGMTFEELTGPWLEKRFAEEPFNRGARSWQMLISEIKEEPEFQHL”, the “soluble fraction (log2)” value was found to be 0.00166. As for “HMYEDGGAFLKAEREKYGLTLTDIYEHTHIPVRKLKAYEMHEEEMPDRTRALLELYFDQVAYEYES”, the “soluble fraction (log2)” value was -0.443. Next, “HMKGKITTNWVSLTSDLGWLRSELYSSGSVLEERISNEGLIELHLENFQNDLIKLLEVEGFDLIKE”: -3.1; “HMESAESRVDLIGMIGEAITDLRPAGTAQFGEERIDVVSESEWITEGSTVKVVSAEGYRHVVRVME”: -0.162; “HMVSDTGAIEAIVAQVLADNPKLVEGYLATPEDKRGKAIGPFIGLTRKAAAGVNPQVVMDVLKKKLSEL”: -0.0515. Regarding “HMELGYTPNNLRSVRAKYGLTQKQVAEITGLKTWHPVNRWEAPVEAAYHADMPHTKWLKLLDELSSR”, the “soluble fraction (log2)” value was -0.993. Turning to “HMGLDMSLEREQHRALREASQWYARLADEQVDSDAERAWRHWVAADEANQRAWQYIEAVSQRFDG”, the “soluble fraction (log2)” value is -0.315. Next, “HMNEIDLEAAKRIALQNAGVESADAAFTKAQLDYDDGVAEYEIEFVAGSTKYEYEISAANGTVLKSSKESV”: -0.0497.
